± gives the uncertainty stated by the source.

This series is described as follows: amyloid nucleation score (Sup35N fusion, yeast selection) (log enrichment); library NNK2; higher = more nucleation; inactive = no reads after selection. The method in brief: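 Psi-negative yeast expressed Sup35N fused to peptides of 20 random codons. They were induced 24 hours with 100 μM copper sulfate, grown 7 days at 30°C without adenine and uracil, and their plasmid inserts from input and output were Illumina-sequenced. The nucleation score is the DiMSum log enrichment of output over input reads, centred on the mode score of non-aggregating sequences. Sequences with under 100 input reads were excluded.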
Turning to MKGEMF, the amyloid nucleation score was -0.345 ± 0.28. To IWGGFYS belongs -1.29 ± 0.75; to LAGGCRRTPAVINRLFVKTA, 0.374 ± 0.4.

Consider ILAVRQV, for which the amyloid nucleation score was found to be 0.054 ± 0.79.

Substance PSWSAKTCACWNKAYPIVEI showed an amyloid nucleation score of 0.633 ± 0.47. GELWCDLRILFVGVSLIVL: the amyloid nucleation score entry is “inactive”. Regarding QFARGPSGSIMEQVLIDGDV, the amyloid nucleation score was found to be 0.277 ± 0.64.

As for RGIKNVWNL, the amyloid nucleation score amounted to 0.461 ± 0.54. With FVLSMVLSIILLSLSHHLFG, the amyloid nucleation score turned out to be 2.33 ± 0.2. Substance DYLCGNFKCYCVFTNDGNRF returned an amyloid nucleation score of 2.42 ± 0.21. In turn, FSNIVNCSDRCATCVYFEFV returned an amyloid nucleation score of 4.808 ± 0.047. Regarding MLMRNFSNSNLLAENFMQMR, the amyloid nucleation score is 0.138 ± 1.1. The same measure for GAGPGSLAKRHYWDSSSQYE: -0.024 ± 0.31.

The substance LYIET registered an amyloid nucleation score of -1.28 ± 0.63. The same measure for VTSICNPDVIMEEKLGDNRG: -0.416 ± 0.28. CISSMVALMGGPWNEMLGTW had an amyloid nucleation score of 0.767 ± 0.74. To REAARRLGEKPNIAVGFDAG belongs 0.559 ± 0.44; to HGDAKFGSVVGAFQDLYS, 1.29 ± 0.39; to NISHVVNLHAWLYRLL, 3.39 ± 0.13. The same measure for TARDVFIAVFA: 0.089 ± 1.1. To ILFGFSLPGSCDNWDRDAKG belongs -1.15 ± 0.78; to VTYFTILNHMCW, 6.602 ± 0.04; to CCSFNLISLYSKVRARSELP, 8.765 ± 0.029.

In turn, SRVIVTDFVNSNATA had an amyloid nucleation score of 0.218 ± 0.51. To AYSDNTFRQCSISVL belongs 0.218 ± 0.8. As for DKPLQWHGCVRKKSTRGRGW, the amyloid nucleation score stood at 0.927 ± 0.45. To TRIRWWF belongs 4.21 ± 0.067. RYGVRSQCYGVTKRLFAITA showed an amyloid nucleation score of 0.951 ± 0.33. To TIFLFLFSMVSVVICLMVLP belongs -1.31 ± 0.55; to SHNVGYCSVSCSCTWWHSCV, “inactive”. In turn, FTYLIEARG displayed an amyloid nucleation score of 1.02 ± 0.41.

Regarding DGSHYFIVRDPVNSCLSSWV, the amyloid nucleation score is -0.668 ± 0.36. The same measure for STVPRVSLLLAPCQVIVAWE: 5.449 ± 0.05; for CFGRMVTSNSSDLRYSNDRL: 1.56 ± 0.097; for WTCVEVHAVYCFGSVDELVL: 8.556 ± 0.058. To FLGTHVHANCSGYMVMIVYR belongs 7.773 ± 0.041. To NGGPRAYLDIYDLSGVSDRR belongs 0.487 ± 0.18; to SEPKEVCLVIGGEEYKGVVS, 0.364 ± 0.37. Regarding DGVCKFQELMSFPGKLYS, the amyloid nucleation score is -0.447 ± 0.5.

VDAVLND returned an amyloid nucleation score of 0.432 ± 0.29. Substance SSYTKMC came in with an amyloid nucleation score of -0.934 ± 0.78. Regarding NHMLL, the amyloid nucleation score is -0.313 ± 0.76. The same measure for FIDIKSICCRHMNDWHCLSE: -0.603 ± 0.32; for VFMTSLY: -1.06 ± 0.49. To WDYVQVCPNLLVRTLLFMFA belongs -0.81 ± 0.32; to DRRLCLCLLIMSC, -0.578 ± 0.79; to LYRLSFSLFWERNRVHSFIR, -0.232 ± 1.1.

In turn, FCCHHCITGITEKAN returned an amyloid nucleation score of 0.674 ± 0.36. Take GIQVNYRWLGFGVGKRKARL: the amyloid nucleation score was determined as 5.547 ± 0.043. The same measure for KATWS: -1.2 ± 0.76. The same measure for IEGDLFVRLRLRKLSQLFKA: 0.196 ± 0.77. Substance FVRGDSGFTLNAAR displayed an amyloid nucleation score of -0.288 ± 0.3. To VSNYMIVKIQWFHIVVGPGL belongs 5.598 ± 0.031; to ACSYANLLVTLLNSPEMPVE, 0.306 ± 0.5; to IVCWTMVVDLIVDQMLTAYR, 1.03 ± 0.28. The same measure for LCSMEIWRMRRMMQS: 0.154 ± 0.34. As for VRGPIGHLCICSAMSLGWIH, the amyloid nucleation score is 2.67 ± 0.11.

The substance FSTHDIGSRKWARQYLYVVH registered an amyloid nucleation score of 0.334 ± 0.31.

(Values after the supplement of paper PMC12042874.)
